{"source": "paper doi:10.1101/2024.08.12.607668", "about": "(bioRxiv, 2024)", "molecules": {"B1": {"name": "AbbA from B. amyloliquefaciens FZB45 as run on analytical FPLC (natural protein, UniProt A0A9P1JGI2 1-63, looked up)", "chain": "MSLIGERFTEEEQKLLLNILINHEYAIELLTSEINDIEAGSKSVDGTTYKKLVTLYDRFRNEN"}, "B2": {"name": "AbrB antirepressor AbbA from B. subtilis 168, His6-tagged (natural protein, UniProt O31697 1-65, looked up)", "chain": "MRMSLIGERFTEEEQKLLLNILINHEYAIELLSSEINDIETGTKNVDGTTYKKLVTLYDRFRFEN"}, "B3": {"name": "AbrB from B. subtilis 168, full-length, His6-tagged (natural protein, UniProt P08874 1-96, looked up)", "chain": "MFMKSTGIVRKVDELGRVVIPIELRRTLGIAEKDALEIYVDDEKIILKKYKPNMTCQVTGEVSDDNLKLAGGKLVLSKEGAEQIISEIQNQLQNLK"}, "B4": {"name": "Full-length AbrB as measured by SAXS (natural protein)", "chain": "MKSTGIVRKVDELGRVVIPIELRRTLGIAEKDALEIYVDDEKIILKKYKPNMTCQVTGEVSDDNLKLAGGKLVLSKEGAEQIISEIQNQLQNLK"}, "B5": {"name": "AbbA from B. subtilis 168 as run on analytical FPLC (natural protein, UniProt O31697 1-65, looked up)", "chain": "MRMSLIGERFTEEEQKLLLNILINHEYAIELLSSEINDIETGTKNVDGTTYKKLVTLYDRFRFEN"}}, "key": {"full-length AbrB": {"molecular_target": "full-length AbrB", "assay": "SPR"}, "[1]": {"molecular_target": "AbrB from B. amyloliquefaciens FZB45, full-length, His6-tagged (B. amyloliquefaciens FZB45)", "assay": "SEC"}, "[2]": {"molecular_target": "AbrB from B. amyloliquefaciens FZB45, full-length, His6-tagged (B. amyloliquefaciens FZB45)", "assay": "native gel or EMSA"}, "[3]": {"molecular_target": "AbrB from B. amyloliquefaciens FZB45, full-length, His6-tagged (B. amyloliquefaciens FZB45)", "assay": "SPR"}, "SEC": {"molecular_target": "the molecule itself", "assay": "SEC"}, "[4]": {"molecular_target": "AbrB from B. amyloliquefaciens FZB45, full-length, His6-tagged (B. amyloliquefaciens FZB45)", "assay": "SPR", "remark": "listed apart in the source"}, "[5]": {"molecular_target": "AbrB from B. amyloliquefaciens FZB45, full-length, His6-tagged (B. amyloliquefaciens FZB45)", "assay": "SPR", "remark": "listed apart in the source"}, "[6]": {"molecular_target": "B3", "assay": "native gel or EMSA"}, "[7]": {"molecular_target": "B3", "assay": "SPR"}, "[8]": {"molecular_target": "T1, Truncated AbrB, N-terminal DNA-binding domain (AbrBN) from B. subtilis 168, His6-tagged (B. subtilis 168)", "T1 sequence (P08874 whole entry, looked up)": "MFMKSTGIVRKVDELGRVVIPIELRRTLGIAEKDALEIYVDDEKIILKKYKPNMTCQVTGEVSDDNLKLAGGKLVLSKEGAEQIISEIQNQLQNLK", "assay": "SPR"}, "SAXS": {"molecular_target": "the molecule itself", "assay": "SAXS"}}, "note": "“And” between values parts separate entries of the source, which are not always exact repeats. Identical values can stand only once. Like-named read-outs stand apart in the source and are kept apart here.", "data": [{"molecule": "AbbA", "values": [{"measurement": "ka1 (two-state reaction model, first reaction)", "setting": "full-length AbrB", "result": "132000 M⁻¹ s⁻¹ and 158000 M⁻¹ s⁻¹"}, {"measurement": "kd1 (two-state reaction model, first reaction)", "setting": "full-length AbrB", "result": "0.0955 s⁻¹ and 0.157 s⁻¹"}]}, {"molecule": "AbrB from B. amyloliquefaciens FZB45, full-length, His6-tagged (natural protein)", "values": [{"measurement": "stoichiometry N", "setting": "[1]", "result": 4}]}, {"molecule": "B1", "values": [{"measurement": "stoichiometry N (AbbA dimers per AbrB tetramer)", "setting": "[2]", "result": 2}, {"measurement": "Kd", "setting": "[3]", "result": "1140 nM and 1240 nM"}, {"measurement": "stoichiometry N", "setting": "SEC", "result": 2}, {"measurement": "Kd", "setting": "[4]", "result": 31.4, "unit": "nM"}, {"measurement": "KD1 (two-state reaction model, first reaction)", "setting": "[5]", "result": 791, "unit": "nM"}, {"measurement": "Kd", "setting": "[5]", "result": 68.9, "unit": "nM"}]}, {"molecule": "B2", "values": [{"measurement": "stoichiometry N", "setting": "[6]", "result": "~2 AbbA dimers per AbrB tetramer"}, {"measurement": "Kd", "setting": "[7]", "result": 448, "unit": "nM"}, {"measurement": "Kd", "setting": "[8]", "result": 3700, "unit": "nM"}]}, {"molecule": "B3", "values": [{"measurement": "stoichiometry N", "setting": "SEC", "result": 4}]}, {"molecule": "B4", "values": [{"measurement": "stoichiometry N", "setting": "SAXS", "result": 4}]}, {"molecule": "B5", "values": [{"measurement": "stoichiometry N", "setting": "SEC", "result": 2}]}]}
